Substitutions are numbered along the chain they refer to. Numbers in names are those of the source.
T1: Fluorogenic peptide Glu(EDANS)-GDYELQGPEDLA-Lys(Dabcyl), p48/p41 cleavage site of the HOV polyprotein
T1 chain: EGDYELQGPEDLAK

B1: Houston virus protease (HOV Pro), GII.4 norovirus protease, wild-type (protein)
chain: APPSIWSRIVNFGSGWGFWVSPSLFITSTHVIPQGAKEFFGVPIKQIQVHKSGEFCRLRFPKPIRTDVTGMILEEGAPEGTVVTLLIKRSTGELMPLAARMGTHATMKIQGRTVGGQMGMLLTGSNAKSMDLGTTPGDCGCPYIYKRGNDYVVIGVHTAAARGGNTVICATQGSEGEATLE
B2: HOV Pro R112A mutant (protein)
chain: B1 chain with R112A

Molecular target: T1, Fluorogenic peptide …

Protein | FRET proteolytic activity at pH 8, 6.5 and 5 | kcat/Km, FRET assay at pH 8 | FRET proteolytic activity at pH 6.5
B1 | while HOV Pro was active at pH 8, it showed no activity at pH 6.5 and pH 5 | kcat/Km=843.7 M^-1s^-1 | 
B2 |  | kcat/Km=1215 M^-1s^-1 | Unlike the wild-type HOV Pro, R112A mutant was active at pH 6.5
